# Results from patent publication US7569579B2, “Cyclopropyl compounds as ccr5 antagonists” (SmithKline Beecham Corporation, priority 2002, dated 2009).
# Molecular target: T1, human CCR5 chemokine receptor (Homo sapiens, UniProt P51681)
# T1 construct: host or cells: Chinese Hamster Ovary (CHO) cells; membranes prepared from the cell pellet
# Assay: CC-Chemokine Receptor-5 binding by scintillation proximity assay (CCR5 SPA), displacement of 125I-MIP1α
# Conditions: standard compound, 14-point concentration-response curve in triplicate
# Method: CC-Chemokine Receptor-5 Binding by Scintillation Proximity Assay (CCR5 SPA) Scintillation Proximity Assay for the Human CC-Chemokine Receptor, CCR-5
# This protocol describes a high-throughput screen using SPA binding to identify compounds that inhibit binding of ^125I-MIP1α to the human CCR5 chemokine receptor.
# Human CCR5 receptors were expressed in Chinese Hamster Ovary (CHO) cells, registration # 12025. Cells were grown in suspension and a 50 to 80 ml CCR5 cell pellet was prepared. […]
# The saturation curve binding experiment is performed by adding varying amounts of [^125I]MIP1α (0-8.5 nM to membranes and beads in concentrations chosen from the optimal protein/bead ratio. The data is analyzed using a non-linear curve-fitting program. The Kd and Bmax are derived from the curve. […]
# T1 sequence (P51681 whole entry): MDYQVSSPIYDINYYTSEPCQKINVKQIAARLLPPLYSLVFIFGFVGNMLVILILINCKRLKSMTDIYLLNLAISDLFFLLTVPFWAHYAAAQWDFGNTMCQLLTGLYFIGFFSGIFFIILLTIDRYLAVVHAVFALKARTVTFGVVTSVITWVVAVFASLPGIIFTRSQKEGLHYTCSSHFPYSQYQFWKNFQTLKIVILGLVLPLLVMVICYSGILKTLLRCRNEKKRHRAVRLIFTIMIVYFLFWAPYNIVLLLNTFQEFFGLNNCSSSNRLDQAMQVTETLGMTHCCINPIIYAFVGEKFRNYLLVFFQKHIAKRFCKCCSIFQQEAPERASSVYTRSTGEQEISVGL
substance,measurement,value
MIP1α: standard compound of the CCR5 SPA; natural chemokine ligand of CCR5 (Peprotech),average historical pKi,7.6
